# B1: BBIssPal: the palmityl disulfide conjugate of BBI (conjugate, UniProt P01055 40-110, looked up)
# Bowman-Birk type proteinase …: DDESSKPCCDQCACTKSNPPQCRCSDMRLNSCHSACKSCICALSYPAQCFCVDITDFCYEPCKPSEDDKEN
# modifications: palmityl disulfide; 125I
# notes: the palmityl disulfide conjugate of BBI
# System: Caco-2 cells
# Format: cell-based, Human
# Experimental: Human colon carcinoma cells (Caco-2) were detached from 25 cm^2 stock culture flasks using a 10 min incubation at 37° C. with 0.5 ml of a trypsin/EDTA solution (0.5% trypsin, 5.3 mM EDTA). The cells were then suspended in 5 ml of Dulbecco's minimum essential medium, supplemented with 15% fetal bovine serum (FBS), L-glutamine (1%), and essential amino acids (1%), and counted using a coulter counter.
# Radioiodination of BBI and BBIssPal was carried out using the chloramine-T method [McConahey, P. C. and Dixon, F. J., Meth. Enzymol., 70:221-247 (1980)]. Confluent, 14-day old cell monolayers were washed once with, and then incubated in, serum-free Dulbecco medium at 37° C. for 30 min. Subsequently, the incubation medium was replaced with serum free medium containing ^125 I-BBI (10 μg/ml), either as native-BBI or as BBIssPal or BBIssOleic, and the monolayers were incubated for a further 60 min at 37° C. The monolayers were then washed three times with ice-cold PBS, and then exposed to trypsin (0.5%, EDTA 5.3 mM) for 10 min at 37° C. The detached cells were transferred to tubes, isolated by centrifugation, washed three times using ice-cold PBS, assayed for accumulated radioactivity using a gamma counter, and finally assayed for cell protein using the published method [Lowry, O. H., et al., J. Biol. Chem., 193:265-275 (1951)].
# In some experiments the uptake of reduced ^125 I-BBIssPal into cells was determined. ^125 I-BBIssPal was reduced with DTT (50 mM) at 60° C. for 5 min followed by a further 25 min at 37° C. In control experiments, ^125 I-BBIssPal was exposed in medium to the same temperatures without being exposed to DTT.
# The uptake of ^125 I-BBIssPal in the presence of BSA (fatty acid free) was determined as follows. ^125 I-BBIssPal was incubated with medium containing 0.1% BSA for 30 min at 37° C. before being added to the cell monolayers. In some uptake experiments, BSA was first mixed with a 3-fold molar excess of palmitic acid, and then incubated with the conjugates prior to the experiments. In the experiments where the uptake of ^125 I-BBIssPal was determined in medium containing FBS, the conjugates was simply added to the medium containing the required amount of FBS.
# The cell monolayers were incubated with ^125 I-labeled conjugates at 10 μg/ml for 60 min at 37° C. The results presented are the average of three monolayers ±SEM. The uptake experiments were carried out in Dulbecco medium, in the presence and absence of added FBS.
# The cell uptake of ^125 I-BBI, either as the native protein or as BBIssPal was determined before and after reduction with DTT (50 mM) for 5 min at 60° C. and 25 min at 37° C.
# The uptake experiments were carried out in Dulbecco medium, in the presence and absence of added fatty acid-free BSA (BSA) or fatty acid-loaded BSA (BSA/FA). The results of studies of the uptake of ^125 I-BBI, either as the native-BBI or in conjugated form to palmitic or oleic acid, in Caco-2 cells in the presence of serum-free medium are presented in FIG. 1. The results are shown as the average ng of BBI internalized ±SEM, n=3. The uptake of ^125 I-BBIssPal into the cells was approximately 100-fold higher than that of ^125 I-BBI. […] The difference between the uptake of ^125 I-BBIssPal and ^125 I-BBIssOleic were significant.
molecule,measurement,value
B1,"Internalization, fold over that of BBI",35 fold
same,Reduction of uptake after reduction with DTT,approximately 80%
same,Reduction of uptake by defatted-BSA,82%
same,"Uptake, fold higher than native-BBI",10 fold
